Reference: publication PMC3626232 (The Journal of biological chemistry, 2000)

T1: XMcm2 (Xenopus (endogenous in Xenopus egg …, UniProt P55861 1-886))
T1 sequence (looked up): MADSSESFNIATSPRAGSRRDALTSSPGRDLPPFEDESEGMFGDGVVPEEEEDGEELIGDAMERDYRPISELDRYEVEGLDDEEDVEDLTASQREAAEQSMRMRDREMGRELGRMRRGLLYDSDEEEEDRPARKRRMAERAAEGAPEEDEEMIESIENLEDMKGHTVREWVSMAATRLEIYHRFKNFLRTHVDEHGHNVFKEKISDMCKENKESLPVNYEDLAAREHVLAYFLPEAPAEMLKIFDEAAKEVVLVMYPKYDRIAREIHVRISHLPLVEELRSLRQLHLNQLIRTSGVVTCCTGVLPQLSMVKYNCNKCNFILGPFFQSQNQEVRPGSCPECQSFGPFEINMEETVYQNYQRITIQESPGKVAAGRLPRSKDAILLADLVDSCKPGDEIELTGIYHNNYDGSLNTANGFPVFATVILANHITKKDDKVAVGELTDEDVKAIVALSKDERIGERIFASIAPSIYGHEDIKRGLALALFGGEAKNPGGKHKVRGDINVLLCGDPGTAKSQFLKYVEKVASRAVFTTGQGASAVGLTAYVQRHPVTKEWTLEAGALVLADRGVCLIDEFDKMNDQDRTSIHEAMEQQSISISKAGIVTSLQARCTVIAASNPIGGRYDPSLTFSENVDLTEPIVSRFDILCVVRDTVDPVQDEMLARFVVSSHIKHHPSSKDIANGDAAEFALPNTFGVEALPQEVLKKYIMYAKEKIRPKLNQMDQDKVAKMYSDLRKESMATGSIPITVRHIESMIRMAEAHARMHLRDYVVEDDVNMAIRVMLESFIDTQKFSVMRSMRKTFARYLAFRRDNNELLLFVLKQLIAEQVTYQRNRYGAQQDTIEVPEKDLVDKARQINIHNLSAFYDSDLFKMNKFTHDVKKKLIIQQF

T2: XMcm3 (Xenopus (endogenous in Xenopus egg …, UniProt P49739 1-807))
T2 sequence (looked up): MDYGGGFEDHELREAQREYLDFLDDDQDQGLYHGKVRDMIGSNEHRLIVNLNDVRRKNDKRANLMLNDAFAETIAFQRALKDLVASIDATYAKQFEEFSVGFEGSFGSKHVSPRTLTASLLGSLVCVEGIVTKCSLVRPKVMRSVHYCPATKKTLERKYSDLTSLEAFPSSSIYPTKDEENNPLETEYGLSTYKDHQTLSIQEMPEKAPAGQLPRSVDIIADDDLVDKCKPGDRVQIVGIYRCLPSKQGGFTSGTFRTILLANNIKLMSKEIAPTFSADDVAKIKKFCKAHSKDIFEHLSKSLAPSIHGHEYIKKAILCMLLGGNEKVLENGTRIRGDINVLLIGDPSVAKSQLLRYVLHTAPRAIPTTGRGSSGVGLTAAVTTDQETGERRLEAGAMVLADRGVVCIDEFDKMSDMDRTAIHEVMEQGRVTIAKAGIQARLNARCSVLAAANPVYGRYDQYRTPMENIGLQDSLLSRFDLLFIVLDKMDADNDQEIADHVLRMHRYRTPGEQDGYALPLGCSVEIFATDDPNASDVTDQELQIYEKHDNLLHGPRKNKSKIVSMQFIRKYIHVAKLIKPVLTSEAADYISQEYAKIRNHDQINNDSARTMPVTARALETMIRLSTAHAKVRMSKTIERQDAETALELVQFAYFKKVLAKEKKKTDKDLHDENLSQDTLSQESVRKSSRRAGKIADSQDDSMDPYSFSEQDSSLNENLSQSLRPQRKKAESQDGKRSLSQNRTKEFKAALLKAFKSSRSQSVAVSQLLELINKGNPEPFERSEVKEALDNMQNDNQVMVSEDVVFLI

B1: XMcm6 (natural protein, UniProt Q5FWY4 1-821, looked up)
chain: MELGGPAAAGDTDIAGQQLFKDELSDKCQKLFLEFLEECKGKDGSNLYVSAAEELIRPERNTLAVNFTDIEYYNQQLATTIQEEYYRVYPHLCRAVRSFARQMGNIPANKEFYIAFSDFPARQKIRELSSAKIGTLLRISGQVVRTHPVHPELVSGTFLCMDCQSIVKDVEQQFRYTQPTICKNPVCANRRRFTLDTNKSRFVDFQKVRIQETQAELPRGAIPRSVEIILRAEAVESAMAGDRCDFTGTLIVVPDVSALAAGDARMETGAKVTGGEGFNSEGVQGLKALGVRDLSYRLAFLACYVGATNPRFGGKDLREEDQTAESIKNQMTVQEWEKVFEMSQDKNLYHNLCTSLFPTIHGNDEIKRGVLLMLFGGVPKTTMEGTSLRGDINVCIVGDPSTSKSQFLKHVEEFSPRAVYTSGKASSAAGLTAAVVKDEESHEFVIEAGALMLADNGVCCIDEFDKMDLKDQVAIHEAMEQQTISITKAGVKATLNARTSILAAANPVGGRYERSKSLKHNVNLSAPIMSRFDLFFILVDECNEVTDYAIARRIVDLHARNEESIERVYSIEDIQRYLLFARQFQPKITKEAEEFIVEQYRRLRQRDGSGVAKSSWRITVRQLESLIRLSESMARMHCSDEVQPKHVKEAFRLLSKSIIRVDTPDVSFDQGEDEKNIEGENNGNLNNGEEAMETNQDEPINEKPSSNAGLKMSFAEYKQISNLLVLYMQKMEETEEECHLTTTDLVNWYLKEMEAEIETETELILKKRLIEKVIHRLIYYDHILIELNKSELKTMDDTKETGEDAAEDRILVVNPNYMLED
B2: XMcm5 (natural protein, UniProt P55862 1-735, looked up)
chain: MSGFDDLGVYYSDSFGGEQQVGDDGQAKKSQLKKRFREFLRQYRIGTDRTGFTFKYRDELKRHYNLGEYWIEVEMEDLASFDEDLADYLYKQPTEHLQLLEEAAQEVADEVTRPRPAGEETIQEIQVMLRSDANPANIRSLKSEQMSHLVKIPGIIIAATAVRAKATKISIQCRSCRNTIGNIAVRPGLEGYAMPRKCNTEQAGRPNCPLDPYFIIPDKCKCVDFQTLKLQESPDAVPHGELPRHMQLYCDRYLCDKVVPGNRVTIMGIYSIRKSGKTSTKGRDRVGVGIRSSYIRVVGIQVDTEGTGRSAAGAITPQEEEEFRRLAAKPDIYETVAKSIAPSIYGSSDIKKAIACLLFGGSRKRLPDGLTRRGDVNLLMLGDPGTAKSQLLKFVERCSPIGVYTSGKGSSAAGLTASVMRDPVSRNFIMEGGAMVLADGGVVCIDEFDKMREDDRVAIHEAMEQQTISIAKAGITTTLNSRCSVLAAANSVYGRWDDTKGEENIDFMPTILSRFDMIFIVKDEHNEQRDMTLAKHVMNVHLSARTQSSSVEGEVDLNTLKKYIAYCRAKCGPRLSAEAAEKLKNRYILMRSGAREHERETEKRSSIPITVRQLEAIVRISESLGKMKLQPFATETDVEEALRLFQVSTLDAAMSGSLSGVEGFTTQEDQEMLSRIEKQMKKRFAIGSQVSEHSIIQDFLKQKYPEHAIHKVLSLMMRRGEIQHRLQRKVLYRIK
B3: XMcm4 (natural protein, UniProt P30664 1-863, looked up)
chain: MSSPTSTPSRRRNKRGRGSNPPTPHGEEVQSPPSQRRRTEDSTSIGELLPMPTSPSGDVQSPSGQELLFSSPAPSRHSAHQSELDLSSPLTYGTPSSRVEGTPRSGIRGTPARQRPDLGSARKVKQVDLHSDQPAAEELVTSEQSLGQKLVIWGTDVNVATCKEKFQRFVQRFIDPSAKEEDNVGLDLNEPIYMQRLEEINVVGDPFLNIDCDHLRNFDQDLYRQLVCYPQEVIPTFDMAANEIFFERYPDSILEHQIQVRPYNALKTRNMRSLNPEDIDQLITISGMVIRTSQIIPEMQEAFFKCQVCAFTTRVEIDRGRIAEPSVCKHCNTTHSMALIHNRSMFSDKQMIKLQESPEDMPAGQTPHTTILYGHNDLVDKVQPGDRVNVTGIYRAVPIRVNPRVRNVKSVYKTHIDVIHYRKTDSKRLHGIDEDTEQKLFTEERVAMLKELAAKPDIYERLAAALAPSIYEHEDIKKGILLQLFGGTRKDFSHTGRGKFRAEVNILLCGDPGTSKSQLLQYVFNLVPRGQYTSGKGSSAVGLTAYVMKDPETRQLVLQTGALVLSDNGICCIDEFDKMNESTRSVLHEVMEQQTLSIAKAGIICQLNARTSVLAAANPVESQWNPKKTTIENIQLPHTLLSRFDLIFLMLDPQDEAYDRRLAHHLVALYYQSEEQMKEEHLDMAVLKDYIAYARTYVNPRLSEEASQALIEAYVSMRKIGSGRGMVSAYPRQLESLIRLSEAHAKVRFSNKVETIDVEEAKRLHREALKQSATDPRTGIVDISILTTGMSATARKRKEELAQVLKKLIQSKGKTPALKYQQLFEDLRGQSDAAITKDMFDEALHALADDDYLTVTGKTVRLL
B4: XMcm7 (natural protein, UniProt Q91876 1-720, looked up)
chain: MPRDYQTEKEKCKTFLQEFYKDDEIGKKHFKYGVQLANIAHREQVALYIDLDDLAEEDPELVDAICENTRRYTNLFADAVQELLPQYKEREVVHKDALDVYIEHRLMMEQRGRDPNEMRDSQNQYPPELMRRFELYFKAPSSSKARVVRDVKADSIGKLVNIRGIVTRVTEVKPMMVVATYTCDQCGAETYQPIQSPTFMPLIMCPSRECQTNRSGGRLYLQTRGSKFIKFQELKIQEHSDQVPVGNIPRCMSVYVRGENTRLAQPGDHVGITGVFLPMLRTGFRQVVQGLLSETYLECHRLVKMNKSEDDELGTEELSEEELRQITEEDFYEKLAASIAPEIYGHEDVKKALLLLLVGGVDNSPRGMKIRGNINICLMGDPGVAKSQLLSYIDRLAPRSQYTTGRGSSGVGLTAAVMKDPVTGEMTLEGGALVLADQGVCCIDEFDKMMDTDRTAIHEVMEQQTISIAKAGIMTTLNARCSILAAANPAYGRYNPKKTVEQNIQLPAALLSRFDVLWLIQDKPDRDNDLRLAQHITYVHQHSKQPPSQFQPLDMKLMRRYITMCKRKQPAIPEALADYLTAAYVEMRKEARTNKDMTFTSARTLLSVLRLSTALARLRLEDVVEKEDVNEAMRLMEMSKDSLLGDKGHTSRTQRPADVIFSTIREMVPEKGARSVKYSEAEQRCVSKGFTPAQFEAALEEYEELNVWLVNQARTKITFV

Legend:
Assay in all cases: co-purification by chromatography with densitometry
XMcm2 = biological target: T1, XMcm2
XMcm4 = biological target: B3
XMcm3 = biological target: T2, XMcm3

Row | stoichiometry N (XMcm2) | stoichiometry N (XMcm4) | stoichiometry N (XMcm3) | binding result (XMcm3) | Binder
1 | 1.1 XMcm6 per 1.0 XMcm2 | 1 XMcm6 per 1.0 XMcm4 |  |  | B1
2 |  |  | 1.2 XMcm5 per 1.0 XMcm3 |  | B2
3 | 1.1 XMcm4 per 1.0 XMcm2 |  |  |  | B3
4 | 1.1 XMcm7 per 1.0 XMcm2 | 1.1 XMcm7 per 1.0 XMcm4 |  | binds | B4
